The text below walks through data of US20220162322A1 (CAPELLA BIOSCIENCE, published 2022).

Numbering of substitutions follows the chain as printed.

The term Kd denotes the concentration at which binding is half-saturated. As a reminder, the EC50 is the concentration giving half of the maximal effect. A high value points to a less potent agent.

Test [1] addresses T1, human BDCA-2-Fc (hIgG1-Fc-hBDCA-2) (human).
T1 construct: also called huBDCA2-Fc
The test can be described thus: SPR (BIAcore T200), huBDCA2-Fc immobilised on CM5 chip, mAb injected. As to the method:
A BIAcore T200 was used with BIAcore run buffer (HBS-EP) at pH7.4. 692RU of huBDCA2-Fc was immobilized to a CM5 chip (CFJB156) utilising 5 μg/ml of huBDCA2-Fc with the BIAcore EDC/NHS kit according to the manufacturer's instructions. Two-fold dilutions of the humanized mAbs were injected starting at 200 nM down to 3.1 nM with a contact time of 60 s at a flow of 30 or 60 ul/min at 25° C. followed by an off-rate wash for 5 minutes with BIAcore buffer. […] The BIAcore T200 software was used to calculate Ka (1/Ms), Kd (1/s) and the KD (nM).
(In general: SPR reads the build-up and loss of mass on a sensor chip optically.)

The target of test [2] is T1, human BDCA-2-Fc (hIgG1-Fc-hBDCA-2). The test is described as follows: ELISA on plate-coated human BDCA2-Fc. The protocol:
100 ul per well of 0.5 μg/ml of human BDCA2-Fc in PBS pH 7.4 was incubated overnight at 4 C. The wells were then washed 3 times with PBST (PBS+0.05% Tween 20) and then blocked with 250 ul 4% Skimmed Milk (Marvel, cat. no. 3023033 Lot no. 7169) in PBS for 120 min at RT. The wells were washed and then incubated with 100 ul per well of humanized mAbs at 3 fold dilutions (from 1 μg/ml to 0.001 μg/ml) in 1% Skimmed Milk PBS buffer at pH 7.4. After 60 min at RT the wells were washed 3 times in PBST and 100 ul of mouse anti-human IgG (anti-CH1-HRP; 1:1000, BD Pharmigen cat. no. 555788) or donkey anti-mouse IgG (anti-mouse IgG-HRP) at 1:5000 dilution (Jackson ImmunoResearch, Cat. no. 715-035-150) in 1% Skimmed Milk PBS was added. Development was with TMB (ThermoFisher, cat. no. 00-4201-56), 100 ul/well and the reaction stopped with 100 μl/well H2SO4 (cat. nr. J/8430/15, lot nr.) and the absorbance read at 450 nm. The EC50 was calculated using Graphpad Prism software. A negative (1% Skimmed Milk/PBS) and positive control (anti-BDCA-2, AC144, Miltenyi Biotec, cat. no. 130-090-690) were utilised in the assay.
For orientation: ELISA stands for enzyme-linked immunosorbent assay.

Test [3] has the same target. The test is described as follows: SPR (BIAcore), comparison of KD.
In test [4] the target is T2, BDCA-2 (CLEC4C, CD303) on human plasmacytoid dendritic cells (purified pDC or pDC within PBMC) (human, UniProt Q8WTT0 1-213).
T2 sequence: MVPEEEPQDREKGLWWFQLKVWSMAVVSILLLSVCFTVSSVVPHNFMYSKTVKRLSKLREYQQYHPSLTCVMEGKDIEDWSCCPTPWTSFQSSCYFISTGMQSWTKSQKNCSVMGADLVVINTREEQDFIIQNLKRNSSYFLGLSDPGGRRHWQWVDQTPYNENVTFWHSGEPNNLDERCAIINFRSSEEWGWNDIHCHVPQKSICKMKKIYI
The test can be described thus: cell-based or functional assay.

In test [5] the target is T2, BDCA-2 (CLEC4C, CD303) on human …. The test can be described thus: cell-based or functional assay. The source holds these as a separate data set.

T1 sequence (chain, as listed by the source limits assumed): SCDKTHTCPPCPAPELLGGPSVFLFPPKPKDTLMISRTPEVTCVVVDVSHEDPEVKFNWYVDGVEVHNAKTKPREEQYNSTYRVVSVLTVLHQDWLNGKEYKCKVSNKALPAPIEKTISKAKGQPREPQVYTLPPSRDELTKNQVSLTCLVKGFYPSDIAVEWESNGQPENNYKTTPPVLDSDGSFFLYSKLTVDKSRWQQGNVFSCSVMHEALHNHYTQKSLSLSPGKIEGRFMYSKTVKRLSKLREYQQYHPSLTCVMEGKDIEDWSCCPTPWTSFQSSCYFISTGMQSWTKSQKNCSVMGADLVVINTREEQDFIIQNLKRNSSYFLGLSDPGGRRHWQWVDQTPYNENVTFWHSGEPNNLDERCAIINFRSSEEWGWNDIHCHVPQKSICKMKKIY

B1: anti-BDCA-2 mAb BIIB059 (from patent WO2014093396) (antibody, V domains shown)
VH: DVQLVESGGGLVKPGGSLRLSCAASGFTFSTYTMSWVRQAPGKGLEWVATISPGDSFGYYYPDSVQGRFTISRDNAKNSLYLQMNSLRAEDTAVYYCTRDIYYNYGAWFAYWGQGTLVTVSS
VL: DIQLTQSPSSLSASVGDRVTITCKASQSVDYDGDSYMNWYQQKPGKAPKLLIYAASTLESGVPSRFSGSGSGTDFTLTISSLQPEDFATYYCQQANEDPRTFGQGTKVEIKR
Regarding B1, binding in test [1] was put at a Kd of 0.7 nM.

B2: 3E05_var1 (antibody, human IgG1, V domains shown)
VH: EVQLVESGGGLVKPGGSLRLSCAASGFTFSSYTMSWVRQAPGKGLEWVAYISSGGGNTYYPDSVKGRFTISRDNAKNSLYLQMNSLRAEDTAVYYCARHDYYDGGLYYAMDYWGQGTLVTVSS
VL: DIVMTQSPDSLAVSLGERATINCKASQSVDYDGDSSMNWYQQKPGQPPKLLISAASTLESGVPSRFSGSGSGTDFTLTISSLQAEDVAVYYCQQTNEDPPTFGGGTKVEIK
notes: also called 3E05 VL1VH1 (var_1)
In test [1], B2 had a Kd of less than 0.01 nM. In addition, the EC50 in test [2] worked out at 0.51 nM. Further, the “fold higher affinity than parental wild type 3E05 and AC144” value in test [3] was greater than 100 fold.

B3: 3E05_var10 (antibody, human IgG1, V domains shown)
VH: B2 VH with E1Q, A49S, P61A
VL: B2 VL with A25S, S53Y, V89T
notes: also called 3E05 VL3VH2 (var_10)
In the case of B3, binding in test [1] was put at a Kd of 0.73 nM. The molecule also returned a concentration for a half-maximal effect (EC50) in test [2] of 0.71 nM.

B4: 3E05_var5 (antibody, human IgG1, V domains shown)
VH: B2 VH
VL: B2 VL with A25S, V89T
notes: also called 3E05 VL2VH1 (var_5)
Turning to B4, the Kd in test [1] was less than 0.01 nM. In test [2], this molecule gave an EC50 of 0.51 nM. Besides, in test [3], the “fold higher affinity than parental wild type 3E05 and AC144” value is greater than 100 fold.

B5: 3E05_var15 (antibody, human IgG1, V domains shown)
VH: B2 VH with N57Q
VL: B2 VL with D32E
notes: also called 3E05 VL4VH3 (var_15)
In test [1], B5 returned a Kd of less than 0.01 nM. Moreover, the EC50 in test [2] is 0.25 nM. In addition, in test [3], the “fold higher affinity than parental wild type 3E05 and AC144” value is greater than 100 fold.

B6: 3E05_var2 (antibody, human IgG1, V domains shown)
VH: B2 VH with E1Q, A49S, P61A
VL: B2 VL
notes: also called 3E05 VL1VH2 (var_2)
Take B6: in test [1], binding was put at a Kd of 0.3 nM. The EC50 in test [2] came out at 0.32 nM.

B7: 3E05_var4 (antibody, human IgG1, V domains shown)
VH: B2 VH with N57Q, D103E
VL: B2 VL
notes: also called 3E05 VL1VH4 (var_4)
Molecule B7 showed a Kd in test [1] of less than 0.01 nM. A half-maximal response in test [2] (EC50) required 0.29 nM. Moreover, the “fold higher affinity than parental wild type 3E05 and AC144” value in test [3] was greater than 100 fold.

B8: 3E05_var16 (antibody, human IgG1, V domains shown)
VH: B2 VH with N57Q, D103E
VL: B2 VL with D32E
In turn, B8 showed a Kd in test [1] of less than 0.01 nM. The molecule further displayed an EC50 in test [2] of 0.25 nM. Also, in test [3], the “fold higher affinity than parental wild type 3E05 and AC144” value was greater than 100 fold.

B9: 3E05_var6 (antibody, human IgG1, V domains shown)
VH: B2 VH with E1Q, A49S, P61A
VL: B2 VL with A25S, V89T
notes: also called 3E05 VL2VH2 (var_6); 3E05VL2VH2 (var_6)
Molecule B9 came in with a Kd in test [1] of less than 0.01 nM. Besides, in test [4], the “IC50, ng/ml; inhibition of IFNα from ODN stimulated healthy donor PBMC” value was determined as 12.3 ng/mL and the “IC90, ng/ml; inhibition of IFNα from ODN stimulated healthy donor PBMC” value came to 110 ng/mL. In test [2], the EC50 is 0.29 nM. The “fold higher affinity than parental wild type 3E05 and AC144” value in test [3] is greater than 100 fold. Moreover, in test [5], the “IC50, nM; inhibition of IFNα from ODN stimulated healthy donor PBMC” value was found to be 0.08 nM and the “IC90, nM; inhibition of IFNα from ODN stimulated healthy donor PBMC” value came to 0.73 nM.

B10: 3E05_var14 (antibody, human IgG1, V domains shown)
VH: B2 VH with E1Q, A49S, P61A
VL: B2 VL with D32E
notes: also called 3E05 VL4VH2 (var_14); 3E05VL4VH2 (var_14)
The molecule B10 had a Kd in test [1] of less than 0.01 nM. Further, in test [4], the “IC50, ng/ml; inhibition of IFNα from ODN stimulated healthy donor PBMC” value was 19.3 ng/mL and the “IC90, ng/ml; inhibition of IFNα from ODN stimulated healthy donor PBMC” value came out at 173 ng/mL. In test [2], this molecule came in with an EC50 of 0.32 nM. In addition, the “fold higher affinity than parental wild type 3E05 and AC144” value in test [3] is greater than 100 fold. In test [5], the “IC50, nM; inhibition of IFNα from ODN stimulated healthy donor PBMC” value is 0.13 nM and the “IC90, nM; inhibition of IFNα from ODN stimulated healthy donor PBMC” value came out at 1.15 nM.

B11: 3E05_var11 (antibody, human IgG1, V domains shown)
VH: B2 VH with N57Q
VL: B2 VL with A25S, S53Y, V89T
notes: also called 3E05 VL3VH3 (var_11)
For B11, in test [1], the Kd amounted to 0.94 nM. In test [2], this molecule returned an EC50 of 0.81 nM.

B12: 3E05_var13 (antibody, human IgG1, V domains shown)
VH: B2 VH
VL: B2 VL with D32E
notes: also called 3E05 VL4VH1 (var_13)
B12 gave a Kd in test [1] of less than 0.01 nM. The EC50 in test [2] came to 0.45 nM. For the same molecule, the “fold higher affinity than parental wild type 3E05 and AC144” value in test [3] is greater than 100 fold.

B13: 3E05_var3 (antibody, human IgG1, V domains shown)
VH: B2 VH with N57Q
VL: B2 VL
notes: also called 3E05 VL1VH3 (var_3)
Turning to B13, in test [1], the Kd is less than 0.01 nM. In test [2], this molecule displayed an EC50 of 0.27 nM. For the same molecule, the “fold higher affinity than parental wild type 3E05 and AC144” value in test [3] was greater than 100 fold.

B14: 3E05_var9 (antibody, human IgG1, V domains shown)
VH: B2 VH
VL: B2 VL with A25S, S53Y, V89T
notes: also called 3E05 VL3VH1 (var_9)
B14: in test [1], the Kd was less than 0.01 nM. In test [2], a half-maximal response (EC50) required 1.12 nM. Further, the “fold higher affinity than parental wild type 3E05 and AC144” value in test [3] was greater than 100 fold.

B15: 3E05_var8 (antibody, human IgG1, V domains shown)
VH: B2 VH with N57Q, D103E
VL: B2 VL with A25S, V89T
For the molecule B15, in test [1], the Kd was less than 0.01 nM. The molecule also came in with a half-maximal effective concentration (EC50) in test [2] of 0.21 nM. The “fold higher affinity than parental wild type 3E05 and AC144” value in test [3] is greater than 100 fold.

B16: 3E05_var7 (antibody, human IgG1, V domains shown)
VH: B2 VH with N57Q
VL: B2 VL with A25S, V89T
notes: also called 3E05 VL2VH3 (var_7)
The molecule B16 came in with a Kd in test [1] of less than 0.01 nM. The EC50 in test [2] amounted to 0.33 nM. Besides, in test [3], the “fold higher affinity than parental wild type 3E05 and AC144” value is greater than 100 fold.
